In patent US20110124552A1:

Biological target: mouse CCR2 on mouse cells (splenocytes, T cells, plasma cells, macrophages, EG7 lymphoma cells) (mouse) (UniProt P51683)
Experiment: cell-based or functional assay

UniProt P51683, sequence (P51683 whole entry): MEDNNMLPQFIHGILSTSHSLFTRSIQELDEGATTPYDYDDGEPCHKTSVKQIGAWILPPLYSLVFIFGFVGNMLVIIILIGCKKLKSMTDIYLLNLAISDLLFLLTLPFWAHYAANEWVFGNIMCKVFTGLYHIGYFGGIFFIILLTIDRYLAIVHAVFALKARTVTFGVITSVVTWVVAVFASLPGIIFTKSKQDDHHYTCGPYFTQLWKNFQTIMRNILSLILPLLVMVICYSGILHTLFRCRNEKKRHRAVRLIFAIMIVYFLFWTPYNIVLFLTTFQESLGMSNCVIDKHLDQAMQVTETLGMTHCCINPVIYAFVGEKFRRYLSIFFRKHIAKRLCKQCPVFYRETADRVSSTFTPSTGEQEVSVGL

Substance: recombinant CCL2 (rCCL2, CCL2 1-76) (from UniProt P10148 24-99) (ligand)
- CD4 T-cells positive for intracellular IL17: 19%
- cell death of RA-derived CD4 T-cells, PI/Annexin-V co-staining, 48 h: 15%
